For one experiment, the target named is T1, P62 (huANGPTL7-his) (human, UniProt O43827 27-346).
T1 construct: not shown: C-terminal short linker and His tag
T1 chain: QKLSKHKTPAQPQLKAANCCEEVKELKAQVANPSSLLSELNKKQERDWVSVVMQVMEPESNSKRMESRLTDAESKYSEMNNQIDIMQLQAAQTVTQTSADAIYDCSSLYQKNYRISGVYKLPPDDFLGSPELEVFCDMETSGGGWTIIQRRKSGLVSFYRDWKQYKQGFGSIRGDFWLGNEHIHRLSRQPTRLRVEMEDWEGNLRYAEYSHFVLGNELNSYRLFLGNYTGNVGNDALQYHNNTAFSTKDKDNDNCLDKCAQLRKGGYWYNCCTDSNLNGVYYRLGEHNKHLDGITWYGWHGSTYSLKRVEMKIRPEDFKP
Briefly: BLI Octet HTX; IgG on AHC sensor; P62 0.343-250 nM; global 1:1 fit. How it is done: Experiments were also conducted to determine the reactivity and dissociation constants (KD) of anti-ANGPTL7 antibodies with the human ANGPTL7-his protein. Binding experiments were performed on Octet HTX (ForteBio) in 1×PBS, pH 7.4, 0.1 mg/mi BSA, 0.05% Sodium Azide, and 0.02% Tween 20. To measure monovalent binding kinetics, antibodies at a concentration of 50 nM were loaded on pre-hydrated AHC biosensors for 5 min. The loaded sensors were dipped into monovalent P62 (huANGPTL7-his) at a range of concentration from 0.343-250 nM (a serial 3-fold dilution) for 5 min association, followed by 10 min dissociation.
A general note: BLI is a label-free optical method that tracks binding on a fibre tip over time.

Another experiment deals with T2, P66 (rabbit ANGPTL7-his) (rabbit, UniProt G1T4P1 27-344).
T2 construct: mature; also called rabbit ANGPTL7 protein
T2 sequence: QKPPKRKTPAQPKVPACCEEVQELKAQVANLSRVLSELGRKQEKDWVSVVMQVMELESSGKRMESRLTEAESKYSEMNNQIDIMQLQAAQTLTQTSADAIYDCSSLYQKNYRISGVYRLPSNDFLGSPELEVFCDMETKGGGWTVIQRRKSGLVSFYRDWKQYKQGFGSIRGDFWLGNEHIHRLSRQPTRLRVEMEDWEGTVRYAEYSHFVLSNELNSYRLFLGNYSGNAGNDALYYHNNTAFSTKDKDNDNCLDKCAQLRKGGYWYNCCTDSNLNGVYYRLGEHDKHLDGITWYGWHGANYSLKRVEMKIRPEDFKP
Briefly: BLI Octet HTX; IgG on AHC sensor; P66 at 200 nM; 1:1 fit. As to the method:
(§1) Experiments were also conducted to determine the reactivity and dissociation constants (KA) of anti-ANGPTL7 antibodies with the rabbit ANGPTL7 protein. Binding experiments were performed on Octet HTX (ForteBio) in Rx PBS, pH 7.4, 0.1 mg/mi BSA, 0.05% Sodium Azide, and 0.02% Tween 20. Antibodies at a concentration of 50 nM were loaded on pre-hydrated AHC biosensors for 5 min. The loaded sensors were dipped into monovalent P66 (rabbit ANGPTL7-his) at a concentration of 200 nM for 5 min of association, followed by 10 min of dissociation. […] Responses (nm) at the end of association were also determined (Table 6).

Experiment [1] concerns the target T3, P60 (huANGPTL7-Fibrinogen-his) (human, UniProt O43827 129-343).
T3 construct: also called human ANGPTL7 fibrinogen domain; not shown: C-terminal short linker and His tag
T3 sequence: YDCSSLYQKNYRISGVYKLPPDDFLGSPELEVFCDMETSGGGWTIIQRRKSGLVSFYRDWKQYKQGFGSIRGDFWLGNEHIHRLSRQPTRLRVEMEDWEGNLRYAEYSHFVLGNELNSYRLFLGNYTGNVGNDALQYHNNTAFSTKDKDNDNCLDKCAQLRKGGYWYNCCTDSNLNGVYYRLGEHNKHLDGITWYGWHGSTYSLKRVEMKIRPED
Briefly: BLI Octet HTX; IgG on AHC sensor; P60 at 200 nM; 1:1 fit. As to the method:
(§2) ANGPTL7 Antibody Kinetics. Experiments were conducted to determine the reactivity and dissociation constants (KD) of anti-ANGPTL7 antibodies with the human fibrinogen domain of the ANGPTL7 protein. Binding experiments were performed on Octet HTX (ForteBio) in 1×PBS, pH 7.4, 0.1 mg/ml BSA, 0.05% Sodium Azide, and 0.02 Tween 20. Antibodies at a concentration of 50 nM were loaded on pre-hydrated AHC biosensors for 5 min. The loaded sensors were dipped into monovalent P60 (huANGPTL7-Fibrinogen-his) at a concentration of 200 nM for 5 min association, followed by 10 min dissociation. […] Responses (nm) at the end of association were also determined (Table 2).

Experiment [2] concerns the target T4, Pext-01 (huANGTPL7-FLAG multimer) (human, UniProt O43827 27-346).
T4 construct: also called PExt-1; human wild type ANGPTL7 multimer; not shown: FLAG tag
T4 sequence: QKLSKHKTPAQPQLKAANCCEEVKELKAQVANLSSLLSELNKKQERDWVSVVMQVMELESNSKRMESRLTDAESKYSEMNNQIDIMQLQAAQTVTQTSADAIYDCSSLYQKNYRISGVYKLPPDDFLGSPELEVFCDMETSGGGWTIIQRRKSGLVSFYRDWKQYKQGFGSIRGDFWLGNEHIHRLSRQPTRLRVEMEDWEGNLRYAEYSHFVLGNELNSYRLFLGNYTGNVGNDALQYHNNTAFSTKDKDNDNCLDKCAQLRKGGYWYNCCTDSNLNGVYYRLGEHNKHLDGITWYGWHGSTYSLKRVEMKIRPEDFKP
The experiment is described as follows: BLI Octet HTX; IgG on AHC sensor; Pext-01 at 100 nM; 1:1 fit; apparent KD. How it is done: Experiments were also conducted to determine the reactivity and dissociation constants (KD) of anti-ANGPTL7 antibodies with the human ANGPTL7 multimer protein. Binding experiments were performed on Octet HTX (ForteBio) in 1×PBS, pH 7.4, 0.1 mg/ml BSA, 0.05% Sodium Azide, and 0.02% Tween 20. Antibodies at a concentration of 50 nM were loaded on pre-hydrated AHC biosensors for 5 mi. The loaded sensors were dipped into Pext-01 (huANGTPL7-FLAG) at a concentration of 100 nM for 5 min of association, followed by 10 min of dissociation. […] Responses (nm) at the end of association were also determined (Table 7).

Experiment [3] addresses T3, P60 (huANGPTL7-Fibrinogen-his). Briefly: BLI Octet HTX; IgG on AHC sensor; P60 at 200 nM. As to the method:
as §2

The target of experiment [4] is T5, muANGPTL7-his (R&D Systems) (mouse, UniProt Q8R1Q3 22-337, limits assumed).
T5 construct: Bought protein; also called mouse ANGPTL7 protein
T5 sequence (looked up): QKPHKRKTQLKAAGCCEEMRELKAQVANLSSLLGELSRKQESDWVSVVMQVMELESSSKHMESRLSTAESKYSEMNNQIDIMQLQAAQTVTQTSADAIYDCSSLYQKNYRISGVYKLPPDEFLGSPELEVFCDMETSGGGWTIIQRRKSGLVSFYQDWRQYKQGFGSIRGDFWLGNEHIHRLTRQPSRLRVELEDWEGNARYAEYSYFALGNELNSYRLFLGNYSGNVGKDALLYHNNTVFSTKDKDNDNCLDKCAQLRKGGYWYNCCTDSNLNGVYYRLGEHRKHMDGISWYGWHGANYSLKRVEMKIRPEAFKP
Briefly: BLI Octet HTX; IgG on AHC sensor; muANGPTL7-his at 200 nM; 1:1 fit. How it is done:
as §1, with “(KD)” for “(KA)”, “mouse” for “rabbit”, “1×PBS,” for “Rx PBS,”, “[…].” for “min.”, “muANGPTL7-his (R&D Systems)” for “P66 (rabbit ANGPTL7-his)”, “5).” for “6).”

Experiment [5] has as its target T5, muANGPTL7-his (R&D Systems). Briefly: BLI Octet HTX; IgG on AHC sensor; muANGPTL7-his at 200 nM. As to the method:
as §1, with “(KD)” for “(KA)”, “mouse” for “rabbit”, “1×PBS,” for “Rx PBS,”, “[…].” for “min.”, “muANGPTL7-his (R&D Systems)” for “P66 (rabbit ANGPTL7-his)”, “5).” for “6).”

B1: ATX-P-433 (antibody, IgG1, V domains shown)
VH: EVQLVESGGGLVQPGRSLRLSCAASGFTFDDFAMHWVRQGPGKGLEWVSGIGWNSGSIGYADSVKGRFTISRDNAKNSLYLQMNSLRAEDTALYYCAKAPDYGDYYFDYWGQGTLVTVSS
VL: DIQMTQSPSSLSASVGDRVTITCRASQSISIYLNWYQQKPGTAPKLLIYAASSLQSGVPSRFSGSGSGTDFTLTISSLQPEDFAAYYCQQSYTTPLTFGGGTKVEIKR
notes: Full chains (VH + hIgG1-Agly-Fc)
The koff is the first-order rate constant of dissociation. What is called kon is the second-order rate constant of association. Take B1: in the experiment with P62 (huANGPTL7-his), the Kd was 1.3 nM, the dissociation rate constant (koff) was found to be 0.00056 s⁻¹ and the kon was 431000 M⁻¹ s⁻¹. In the experiment with P66 (rabbit ANGPTL7-his), the Kd worked out at 7.02 nM, the Response is 0.9 nm, the off-rate (koff) amounted to 0.000727 s⁻¹ and the kon was 104000 M⁻¹ s⁻¹. Besides, in experiment [1], the Kd came out at 10.9 nM, the Response was found to be 0.66 nm, the koff turned out to be 0.00243 s⁻¹ and the association rate constant (kon) was found to be 223000 M⁻¹ s⁻¹. Further, the Response in experiment [2] is 0.72 nm.

B2: ATX-P-438 (antibody, human IgG1, kappa, N297A, V domains shown)
VH: QVQLVESGGGVVQPGRSLRLSCAASGFTFSSYGMHWVRQAPGKGLEWVAIISYDGNNKYYADSVKGRFTISRDNSKNTLYLQMNSLRDEDTAVYYCAKERGYSSSSGYYYYYMDVWGKGTTVTVSS
VL: EIVLTQSPGTLSLSPGERATLSCRASQSVSRSYLAWYQQKPGQAPRLLIIGASTRATGIPDRFSGSGSGTDFTLTISRLEPEDFAVYYCQQGQVIPPTFGQGTKVEIKR
notes: as for B1
B2: the Kd was 7.16 nM in the experiment with P66 (rabbit ANGPTL7-his) and 65.3 nM in experiment [2]. For the same molecule, the Response is 0.42 nm with P66 (rabbit ANGPTL7-his), 0.08 nm in experiment [1], 0.01 nm in experiment [4] and 0.6 nm in experiment [2]. Besides, the binding result in experiment [3] and in experiment [5] was “no binding (tested: 200 nM)” in each case.

B3: ATX-P-447 (antibody, human IgG1, kappa, N297A, V domains shown)
VH: EVQLVESGGGLVQPGGSLRLSCAASGFTISDYDMHWVRQTTGKGLEWVSGIDPDGDTYYPGSLKGRFTISRENAKNSLYLQMNSLRAGDTAVYYCTRGEDSSSSEDAFDIWGQGTMVTVSS
VL: not shown
notes: as for B1
B3: the binding result is recorded as “binds” with P62 (huANGPTL7-his), “no binding (tested: 200 nM)” in experiment [3] and “no binding (tested: 200 nM)” in experiment [5]. In the experiment with P66 (rabbit ANGPTL7-his), this molecule yielded a Kd of 3.33 nM. For the same molecule, the Response is 0.65 nm with P66 (rabbit ANGPTL7-his), 0.08 nm in experiment [1], 0.12 nm in experiment [4] and 0.91 nm in experiment [2].

B4: ATX-P-444 (antibody, human IgG1, kappa, N297A, V domains shown)
VH: EVQLVESGGGLVQPGGSLRLSCAASGFTLSVYDMHWVRQVSGKGLEWVSGIDPDGDTYYPGSVKGRFTISRENAKNSLYLQMNSLRVGDTAVYYCLRGEESNSSEDGFDIWGQGTMVTVSS
VL: not shown
notes: as for B1
For the molecule B4, the results for the Response in experiment [1], in experiment [4] and in experiment [2] were 0.14 nm, 0.01 nm and 0.7 nm, respectively. Moreover, the binding result in experiment [3] and in experiment [5] was “no binding (tested: 200 nM)” throughout.

B5: ATX-P-446 (antibody, human IgG1, kappa, N297A, V domains shown)
VH: EVQLVESGGGLVQPGGSLRLSCAASGFTLSSYDMHWVRQVIGKGLEWVSGIDPDGDTYYPGSVKGRFTISREDAKNSLYLQMNSLRAGDTAVYYCTRGEDNSSSEDAFDIWGQGTMVTVSS
VL: not shown
notes: as for B1
The molecule B5 gave a Kd in the experiment with P66 (rabbit ANGPTL7-his) of 3.19 nM. Moreover, the Response came out at 0.41 nm with P66 (rabbit ANGPTL7-his), 0.09 nm in experiment [1], 0.05 nm in experiment [4] and 0.75 nm in experiment [2]. Moreover, the binding result in experiment [3] and in experiment [5] was “no binding (tested: 200 nM)” throughout.

B6: ATX-P-445 (antibody, human IgG1, kappa, N297A, V domains shown)
VH: EVQLVESGGGLVQPGGSLRLSCAASGFTFSSHDMHWVRQVTGKGLEWVSGIDPAGDTYYPDSVKGRFTISRENAKNSLYLQMNSLRAGDTAVYYCTRGEASSSSEDAFDIWGQGTMVTVSS
VL: not shown
notes: as for B1
Turning to B6, the Response is 0.12 nm in experiment [1], 0.01 nm in experiment [4] and 0.8 nm in experiment [2]. Further, the binding result in experiment [3] and in experiment [5] was “no binding (tested: 200 nM)” throughout.

Values taken from patent US20250296996A1 (BROADWING BIO, published 2025).
